Assay results taken from paper PMC9070667, “Molecular insights into RNA recognition and gene regulation by the TRIM-NHL protein Mei-P26”.

Assays:
[1] = molecular target: T1, Mei-P26 NHL wt (Drosophila melanogaster (Oregon-R), UniProt M9PH32 908-1206); test: MST; MST: 20 mM Hepes/KOH pH 7.5, 100 mM NaCl, 5 mM MgCl2, 5 mM DTT, 0.0125% Tween 20, 25 C (Brat: 20 mM Tris 8.0, 150 mM NaCl, 1 mM MgCl2, 5 mM DTT, 0.0125% Tween 20). EMSA, 1:1 mix, 4 C: RNA in 10 mM Tris pH 7.4, 50 mM KCl, 1 mM EDTA, 1 mM DTT, 0.4 mg/ml yeast tRNA; protein in 20 mM Hepes pH 7.5, 5 mM DTT, 100 mM (wt) or 300 mM (mutants) NaCl, 5% glycerol; details: protein: recombinant, tags: GST removed by TEV
T1 sequence: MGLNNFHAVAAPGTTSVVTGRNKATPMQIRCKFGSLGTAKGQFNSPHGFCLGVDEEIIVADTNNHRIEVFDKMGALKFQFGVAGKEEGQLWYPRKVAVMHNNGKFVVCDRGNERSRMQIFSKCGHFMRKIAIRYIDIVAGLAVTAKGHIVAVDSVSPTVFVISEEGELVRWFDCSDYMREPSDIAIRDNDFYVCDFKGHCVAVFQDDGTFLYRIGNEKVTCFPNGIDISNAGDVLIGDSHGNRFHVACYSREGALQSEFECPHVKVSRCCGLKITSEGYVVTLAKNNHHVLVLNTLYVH

[2] = molecular target: T1, Mei-P26 NHL wt; test: EMSA; MST: 20 mM Hepes/KOH pH 7.5, 100 mM NaCl, 5 mM MgCl2, 5 mM DTT, 0.0125% Tween 20, 25 C (Brat: 20 mM Tris 8.0, 150 mM NaCl, 1 mM MgCl2, 5 mM DTT, 0.0125% Tween 20). EMSA, 1:1 mix, 4 C: RNA in 10 mM Tris pH 7.4, 50 mM KCl, 1 mM EDTA, 1 mM DTT, 0.4 mg/ml yeast tRNA; protein in 20 mM Hepes pH 7.5, 5 mM DTT, 100 mM (wt) or 300 mM (mutants) NaCl, 5% glycerol; details: protein: recombinant, tags: GST removed by TEV
[3] = molecular target: T2, Mei-P26 NHL RKR (Drosophila melanogaster (Oregon-R), UniProt M9PH32 908-1206, R1150A;K1172A;R1175A); test: as above; details: protein: recombinant; tags: GST removed by TEV; label: 32P
T2 sequence: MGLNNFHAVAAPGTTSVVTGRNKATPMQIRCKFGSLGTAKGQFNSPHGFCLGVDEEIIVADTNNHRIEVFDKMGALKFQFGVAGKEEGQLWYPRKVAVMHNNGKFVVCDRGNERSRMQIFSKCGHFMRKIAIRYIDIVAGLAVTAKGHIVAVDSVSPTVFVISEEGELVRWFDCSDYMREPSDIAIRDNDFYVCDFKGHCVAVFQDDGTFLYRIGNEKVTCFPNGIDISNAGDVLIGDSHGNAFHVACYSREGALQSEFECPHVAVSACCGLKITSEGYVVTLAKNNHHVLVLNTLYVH

[4] = molecular target: T3, Brat NHL (Drosophila melanogaster, UniProt Q8MQJ9 756-1037); test: MST; MST: 20 mM Hepes/KOH pH 7.5, 100 mM NaCl, 5 mM MgCl2, 5 mM DTT, 0.0125% Tween 20, 25 C (Brat: 20 mM Tris 8.0, 150 mM NaCl, 1 mM MgCl2, 5 mM DTT, 0.0125% Tween 20). EMSA, 1:1 mix, 4 C: RNA in 10 mM Tris pH 7.4, 50 mM KCl, 1 mM EDTA, 1 mM DTT, 0.4 mg/ml yeast tRNA; protein in 20 mM Hepes pH 7.5, 5 mM DTT, 100 mM (wt) or 300 mM (mutants) NaCl, 5% glycerol; details: protein: recombinant; tags: His6-ubiquitin fusion (pHUE); label: Cy5
T3 sequence: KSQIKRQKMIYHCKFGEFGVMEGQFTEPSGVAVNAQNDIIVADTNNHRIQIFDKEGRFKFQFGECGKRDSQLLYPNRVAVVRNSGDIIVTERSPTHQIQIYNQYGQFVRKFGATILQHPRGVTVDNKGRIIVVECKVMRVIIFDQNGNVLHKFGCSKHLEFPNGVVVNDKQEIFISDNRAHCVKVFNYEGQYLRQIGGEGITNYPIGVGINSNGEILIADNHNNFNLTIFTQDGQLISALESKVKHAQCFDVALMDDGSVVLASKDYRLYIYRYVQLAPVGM

[5] = molecular target: T2, Mei-P26 NHL RKR; test: as above; details: protein: recombinant; tags: GST removed by TEV; label: Cy5
[6] = molecular target: T4, Mei-P26 NHL R1175A (Drosophila melanogaster (Oregon-R), UniProt M9PH32 908-1206, R1175A); test: MST; minor influence of the mutation; MST: 20 mM Hepes/KOH pH 7.5, 100 mM NaCl, 5 mM MgCl2, 5 mM DTT, 0.0125% Tween 20, 25 C (Brat: 20 mM Tris 8.0, 150 mM NaCl, 1 mM MgCl2, 5 mM DTT, 0.0125% Tween 20). EMSA, 1:1 mix, 4 C: RNA in 10 mM Tris pH 7.4, 50 mM KCl, 1 mM EDTA, 1 mM DTT, 0.4 mg/ml yeast tRNA; protein in 20 mM Hepes pH 7.5, 5 mM DTT, 100 mM (wt) or 300 mM (mutants) NaCl, 5% glycerol; details: protein: recombinant; tags: GST removed by TEV; label: Cy5 (MST); 32P (EMSA)
T4 sequence: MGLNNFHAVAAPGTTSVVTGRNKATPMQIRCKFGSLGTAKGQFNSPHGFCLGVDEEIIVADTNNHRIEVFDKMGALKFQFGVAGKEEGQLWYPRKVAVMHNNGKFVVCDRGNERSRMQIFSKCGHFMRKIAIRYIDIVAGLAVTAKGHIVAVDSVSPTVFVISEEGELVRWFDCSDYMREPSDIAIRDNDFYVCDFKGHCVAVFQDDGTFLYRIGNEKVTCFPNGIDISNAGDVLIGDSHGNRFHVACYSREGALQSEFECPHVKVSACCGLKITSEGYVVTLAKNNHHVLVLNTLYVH

## UUUUACAA (ssRNA) [SEQ44U]
[1]; label: Cy5
  binding result: binds

## AGUAAUUUUUUCUAUUAAAGU (ssRNA) [Hrb27C]
[2]; label: 32P
  binding result: binds
[3]
  binding result: no binding

## UUUUUAA (ssRNA) [BRATmut]
[1]; label: Cy5
  binding result: binds

## UUGUUAA (ssRNA) [BRAT1]
[4]
  binding result: binds

## GGUCUUUUUACAAAAG (ssRNA) [Mlc-c]
[2]; label: 32P
  binding result: binds
[3]
  binding result: no binding

## UUUUUUU (ssRNA) [U7 (SEQ1)]
[1]; label: Cy5
  Kd: 1.8 ± 0.2 µM

## AUCCUUUUUAAAACUCC (ssRNA) [LanA]
[2]; label: 32P
  binding result: binds
[3]
  binding result: no binding

## TTTTACA (ssDNA) [DNA]
[1]; label: Cy5 (MST), 32P (EMSA)
  binding result: no binding

## UUUUUAC (ssRNA) [SEQ5]
[1]; label: Cy5
  binding result: binds

## GCCAUUUUUUAUCUGCCA (ssRNA) [Col4a1]
[2]; label: 32P
  binding result: binds
[3]
  binding result: no binding

## GGAGUCCAACUCC (structured_RNA) [dsRNA hairpin (Lin41 SEQ)]
[1]; label: Cy5 (MST), 32P (EMSA), hairpin
  binding result: no binding

## AUUUACA (ssRNA) [SEQ2]
[1]; label: Cy5
  binding result: binds

## UUUUACA (ssRNA) [SEQ3]
[1]; label: Cy5
  Kd: 1.7 µM
[5]
  binding result: no binding

## CCCUUUUUUUAUACACAA (ssRNA) [lost]
[2]; label: 32P
  binding result: binds
[3]
  binding result: no binding

## UUUUUUUUU (ssRNA) [U9]
[6]
  binding result: binds
[2]; label: Cy5 (MST), 32P (EMSA)
  binding result: binds
